Experimental data published in patent publication US20040219615.

Molecular target: RAP-2 (RIP-associated protein-2), full-length
Sequence (chain, as listed by the source): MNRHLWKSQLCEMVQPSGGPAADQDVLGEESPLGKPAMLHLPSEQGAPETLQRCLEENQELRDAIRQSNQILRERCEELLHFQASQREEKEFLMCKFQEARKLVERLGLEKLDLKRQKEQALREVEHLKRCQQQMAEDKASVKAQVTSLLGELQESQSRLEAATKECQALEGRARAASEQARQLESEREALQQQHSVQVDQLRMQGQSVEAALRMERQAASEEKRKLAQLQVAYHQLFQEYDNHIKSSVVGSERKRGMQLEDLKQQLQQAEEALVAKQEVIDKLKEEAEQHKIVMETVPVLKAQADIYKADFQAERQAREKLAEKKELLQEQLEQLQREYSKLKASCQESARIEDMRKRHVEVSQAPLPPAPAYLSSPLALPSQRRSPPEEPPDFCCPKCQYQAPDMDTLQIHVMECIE

Protein | in vitro immunocomplex kinase assay | in vitro phosphorylation of the immunoprecipitated complex
RIP (receptor interacting protein) (protein) MQPDMSLNVIKMKSSDFLESAELDSGGFGKVSLCFHRTQGLMIMKTVYKGPNCIEHNEALLEEAKMMNRLRHSRVVKLLGVIIEEGKYSLVMEYMEKGNLMHVLKAEMSTPLSVKGRIILEIIEGMCYLHGKGVIHKDLKPENILVDNDFHIKIADLGLASFKMWSKLNNEEHNELREVDGTAKKNGGTLYYMAPEHLNDVNAKPTEKSDVYSFAVVLWAIFANKEPYENAICEQQLIMCIKSGNRPDVDDITEYCPREIISLMKLCWEANPEARPTFPGIEEKFRPFYLSQLEESVEEDVKSLKKEYSNENAVVKRMQSLQLDCVAVPSSRSNSATEQPGSLHSSQGLGMGPVEESWFAPSLEHPQEENEPSLQSKLQDEANYHLYGSRMDRQTKQQPRQNVAYNREEERRRRVSHDPFAQQRPYENFQNTEGKGTAYSSAASHGNAVHQPSGLTSQPQVLYQNNGLYSSHGFGTRPLDPGTAGPRVWYRPIPSHMPSLHNIPVPETNYLGNTPTMPFSSLPPTDESIKYTIYNSTGIQIGAYNYMEIGGTSSSLLDSTNTNFKEEPAAKYQAIFDNTTSLTDKHLDPIRENLGKHWKNCARKLGFTQSQIDEIDHDYERDGLKEKVYQMLQKWVMREGIKGATVGKLAQALHQCSRIDLLSSLIYVSQN | over-expressed RIP did not phosphorylate RAP-2 | –
IKK1 (protein) MERPPGLRPGAGGPWEMRERLGTGGFGNVCLYQHRELDLKIAIKSCRLELSTKNRERWCHEIQIMKKLNHANVVKACDVPEELNILIHDVPLLAMEYCSGGDLRKLLNKPENCCGLKESQILSLLSDIGSGIRYLHENKIIHRDLKPENIVLQDVGGKIIHKIIDLGYAKDVDQGSLCTSFVGTLQYLAPELFENKPYTATVDYWSFGTMVFECIAGYRPFLHHLQPFTWHEKIKKKDPKCIFACEEMSGEVRFSSHLPQPNSLCSLVVEPMENWLQLMLNWDPQQRGGPVDLTLKQPRCFVLMDHILNLKIVHILNMTSAKIISFLLPPDESLHSLQSRIERETGINTGSQELLSETGISLDPRKPASQCVLDGVRGCDSYMVYLFDKSKTVYEGPFASRSLSDCVNYIVQDSKIQLPIIQLRKVWAEAVHYVSGLKEDYSRLFQGQRAAMLSLLRYNANLTKMKNTLISASQQLKAKLEFFHKSIQLDLERYSEQMTYGISSEKMLKAWKEMEEKAIHYAEVGVIGYLEDQIMSLHAEIMELQKSPYGRRQGDLMESLEQRAIDLYKQLKHRPSDHSYSDSTEMVKIIVHTVQSQDRVLKELFGHLSKLLGCKQKIIDLLPKVEVALSNIKEADNTVMFMQGKRQKEIWHLLKIACTQSSARSLVGSSLEGAVTPQTSAWLPPTSAEHDHSLSCVVTPQDGETSAQMIEENLNCLGHLSTIIHEANEEQGNSMMNLDWSWLTE | – | RAP-2 becomes phosphorylated
